Reference: US9845340B2, “Peptides that specifically bind HGF receptor (cMet) and uses thereof” (Dyax Corp., priority 2003, dated 2017)

Experiments:
[1] = molecular target: T1, 3T3 cells that over-express human cMet (Homo sapiens, UniProt P08581); experiment: Whole cell ELISA of peptide-displaying phage; format: cell-based; conditions: phage isolate; 3T3 cells expressing human cMet vs. non-expressing 3T3 cells
T1 construct: expressed in transfected cells; host or cells: 3T3 cells
Outline: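 3T3 cells over-expressing human cMet seeded 10^5/well, pelleted and fixed with 0.1% glutaraldehyde 12 min at 37 °C. Blocked peptide-displaying phage bound 1 h at room temperature; after PBST wash, bound phage detected with HRP-conjugated anti-M13 antibody.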

cMet-Fc fusion protein = cMet-Fc fusion protein (Homo sapiens, UniProt P08581); experiment: Protein phage ELISA: peptide-displaying phage binding to soluble cMet-Fc versus TRAIL-Fc; conditions: phage isolate; cMet-Fc vs. TRAIL-Fc
Outline: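 Plates coated with 0.5 μg/mL cMet-Fc or, as background, TRAIL-Fc, then blocked with 3% BSA in PBST. Peptide-displaying phage bound 2 h at room temperature. Detection with HRP-anti-M13 antibody.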

T1 sequence (P08581 25-1390): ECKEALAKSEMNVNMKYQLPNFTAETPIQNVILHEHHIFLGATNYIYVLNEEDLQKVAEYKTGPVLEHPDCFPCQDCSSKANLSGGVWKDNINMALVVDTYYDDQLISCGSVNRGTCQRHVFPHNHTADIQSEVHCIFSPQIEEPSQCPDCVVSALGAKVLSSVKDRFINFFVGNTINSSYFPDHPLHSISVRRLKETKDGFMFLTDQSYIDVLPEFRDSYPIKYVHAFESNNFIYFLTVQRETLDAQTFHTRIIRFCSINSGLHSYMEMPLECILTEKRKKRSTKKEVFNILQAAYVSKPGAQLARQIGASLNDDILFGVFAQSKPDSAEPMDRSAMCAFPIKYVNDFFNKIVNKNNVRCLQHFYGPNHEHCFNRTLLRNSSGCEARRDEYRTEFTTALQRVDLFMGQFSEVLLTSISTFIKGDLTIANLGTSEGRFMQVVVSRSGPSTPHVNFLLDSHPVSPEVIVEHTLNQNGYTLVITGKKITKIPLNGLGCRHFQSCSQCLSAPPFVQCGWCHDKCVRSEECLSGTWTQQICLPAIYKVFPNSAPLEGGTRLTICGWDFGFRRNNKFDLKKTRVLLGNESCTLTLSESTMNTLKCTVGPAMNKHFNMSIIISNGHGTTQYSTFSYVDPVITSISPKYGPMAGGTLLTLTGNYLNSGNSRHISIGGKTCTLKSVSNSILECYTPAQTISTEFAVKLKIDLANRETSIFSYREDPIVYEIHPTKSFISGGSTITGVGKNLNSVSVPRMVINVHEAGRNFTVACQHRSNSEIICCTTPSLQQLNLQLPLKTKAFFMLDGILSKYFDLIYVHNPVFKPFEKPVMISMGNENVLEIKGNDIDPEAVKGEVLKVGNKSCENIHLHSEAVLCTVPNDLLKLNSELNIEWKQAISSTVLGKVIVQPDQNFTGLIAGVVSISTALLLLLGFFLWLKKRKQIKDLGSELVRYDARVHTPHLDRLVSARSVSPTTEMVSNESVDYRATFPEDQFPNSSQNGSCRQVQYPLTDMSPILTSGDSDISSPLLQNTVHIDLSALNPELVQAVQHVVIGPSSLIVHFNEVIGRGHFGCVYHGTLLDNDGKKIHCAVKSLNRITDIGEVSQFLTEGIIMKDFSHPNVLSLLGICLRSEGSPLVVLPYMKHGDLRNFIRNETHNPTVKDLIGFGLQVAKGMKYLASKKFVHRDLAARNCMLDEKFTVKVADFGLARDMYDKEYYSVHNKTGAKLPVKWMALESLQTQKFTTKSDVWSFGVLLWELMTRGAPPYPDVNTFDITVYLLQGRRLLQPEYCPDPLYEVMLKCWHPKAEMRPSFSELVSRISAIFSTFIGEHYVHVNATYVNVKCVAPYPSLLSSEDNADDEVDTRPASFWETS
cMet-Fc fusion protein, sequence (P08581 25-307 limits assumed): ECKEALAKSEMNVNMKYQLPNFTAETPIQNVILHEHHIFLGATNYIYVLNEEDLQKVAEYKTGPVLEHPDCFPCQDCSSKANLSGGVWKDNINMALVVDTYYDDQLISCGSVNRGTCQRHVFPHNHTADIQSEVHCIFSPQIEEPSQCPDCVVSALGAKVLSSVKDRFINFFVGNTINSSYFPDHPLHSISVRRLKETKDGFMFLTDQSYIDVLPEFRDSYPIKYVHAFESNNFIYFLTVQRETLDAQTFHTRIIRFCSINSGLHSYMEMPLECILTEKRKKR
cMet-Fc fusion protein, sequence (P08581 with tags, fused parts or gaps limits assumed): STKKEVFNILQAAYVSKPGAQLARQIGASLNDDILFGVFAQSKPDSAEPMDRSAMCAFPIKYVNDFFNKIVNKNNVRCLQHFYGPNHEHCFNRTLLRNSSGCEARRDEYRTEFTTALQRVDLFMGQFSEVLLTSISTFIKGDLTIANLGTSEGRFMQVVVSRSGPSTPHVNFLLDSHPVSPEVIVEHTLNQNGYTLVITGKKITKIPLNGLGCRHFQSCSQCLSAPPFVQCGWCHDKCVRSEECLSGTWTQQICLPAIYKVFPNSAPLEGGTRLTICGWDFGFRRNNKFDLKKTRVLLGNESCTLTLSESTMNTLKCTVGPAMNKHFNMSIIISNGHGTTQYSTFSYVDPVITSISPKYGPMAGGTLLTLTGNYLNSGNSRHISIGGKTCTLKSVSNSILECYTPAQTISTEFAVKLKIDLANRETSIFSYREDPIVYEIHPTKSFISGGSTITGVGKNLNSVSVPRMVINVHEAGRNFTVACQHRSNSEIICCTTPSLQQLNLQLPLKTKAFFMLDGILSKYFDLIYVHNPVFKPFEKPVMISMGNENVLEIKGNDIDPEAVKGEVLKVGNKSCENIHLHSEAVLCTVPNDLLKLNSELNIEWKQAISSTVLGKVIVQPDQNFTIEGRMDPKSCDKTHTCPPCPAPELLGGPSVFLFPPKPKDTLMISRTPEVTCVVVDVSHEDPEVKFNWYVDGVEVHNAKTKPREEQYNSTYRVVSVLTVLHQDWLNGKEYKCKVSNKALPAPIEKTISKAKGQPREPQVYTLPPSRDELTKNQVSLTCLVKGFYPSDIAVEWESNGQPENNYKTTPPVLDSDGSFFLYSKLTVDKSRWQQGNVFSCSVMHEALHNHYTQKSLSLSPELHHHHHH

Sequence: AGKYMCEGFEWFCEMWGT (Synthetically generated cMet-binding peptide sequence) [SEQ ID NO: 037]
- WC ELISA [1]: 1.43 fold over background
- Protein ELISA (cMet-Fc fusion protein): 4.1 fold over background

Sequence: AGLLGCWDMPMECTGEGT (Synthetically generated cMet-binding peptide sequence) [SEQ ID NO: 036]
- WC ELISA [1]: 1.27 fold over background
- Protein ELISA (cMet-Fc fusion protein): 3.6 fold over background

Sequence: AGLPKCSGPPWFSCYYGGT (Synthetically generated cMet-binding peptide sequence) [SEQ ID NO: 066]
- WC ELISA [1]: 1.30 fold over background
- Protein ELISA (cMet-Fc fusion protein): 13.5 fold over background

Sequence: AGLYLCDLSIMYCFFQGT (Synthetically generated cMet-binding peptide sequence) [SEQ ID NO: 015]
- WC ELISA [1]: 1.33 fold over background
- Protein ELISA (cMet-Fc fusion protein): 4.3 fold over background

Sequence: AGMDFCEGFWFLCIGNAT (Synthetically generated cMet-binding peptide sequence) [SEQ ID NO: 035]
- WC ELISA [1]: 1.23 fold over background
- Protein ELISA (cMet-Fc fusion protein): 3.5 fold over background

Sequence: AGMTLCAGPPTFECYEVGT (Synthetically generated cMet-binding peptide sequence) [SEQ ID NO: 092]
- WC ELISA [1]: 1.23 fold over background
- Protein ELISA (cMet-Fc fusion protein): 12.3 fold over background

Sequence: AGNLPCHWNMSVCDHQGT (Synthetically generated cMet-binding peptide sequence) [SEQ ID NO: 034]
- WC ELISA [1]: 1.30 fold over background
- Protein ELISA (cMet-Fc fusion protein): 3.3 fold over background

Sequence: AGNWICNLSEMRCYPKGT (Synthetically generated cMet-binding peptide sequence) [SEQ ID NO: 013]
- WC ELISA [1]: 1.40 fold over background
- Protein ELISA (cMet-Fc fusion protein): 3.9 fold over background

Sequence: AGNYFCAGSPSFSCYFMGT (Synthetically generated cMet-binding peptide sequence) [SEQ ID NO: 054]
- WC ELISA [1]: 1.33 fold over background
- Protein ELISA (cMet-Fc fusion protein): 13.4 fold over background

Sequence: AGNYWCSGPPSFICHAVGT (Synthetically generated cMet-binding peptide sequence) [SEQ ID NO: 091]
- WC ELISA [1]: 1.27 fold over background
- Protein ELISA (cMet-Fc fusion protein): 8.9 fold over background

Sequence: AGPLFCFEWPSLCHWGGT (Synthetically generated cMet-binding peptide sequence) [SEQ ID NO: 033]
- WC ELISA [1]: 1.43 fold over background
- Protein ELISA (cMet-Fc fusion protein): 3.8 fold over background

Sequence: AGPWKCTGPPTFSCIQFGT (Synthetically generated cMet-binding peptide sequence) [SEQ ID NO: 090]
- WC ELISA [1]: 1.23 fold over background
- Protein ELISA (cMet-Fc fusion protein): 19.5 fold over background

Sequence: AGPYSCHSESHDCKLMGT (Synthetically generated cMet-binding peptide sequence) [SEQ ID NO: 032]
- WC ELISA [1]: 1.27 fold over background
- Protein ELISA (cMet-Fc fusion protein): 3.2 fold over background

Sequence: AGQAVCEWGPFWCQMQGT (Synthetically generated cMet-binding peptide sequence) [SEQ ID NO: 031]
- WC ELISA [1]: 1.30 fold over background
- Protein ELISA (cMet-Fc fusion protein): 3.2 fold over background

Sequence: AGQFKCAGPPSFACWMTGT (Synthetically generated cMet-binding peptide sequence) [SEQ ID NO: 050]
- WC ELISA [1]: 1.43 fold over background
- Protein ELISA (cMet-Fc fusion protein): 14.8 fold over background

Sequence: AGQFYCSGPPTFQCIMIGT (Synthetically generated cMet-binding peptide sequence) [SEQ ID NO: 089]
- WC ELISA [1]: 1.23 fold over background
- Protein ELISA (cMet-Fc fusion protein): 12.4 fold over background

Sequence: AGQMWCAEKNSKCYQWGT (Synthetically generated cMet-binding peptide sequence) [SEQ ID NO: 030]
- WC ELISA [1]: 1.27 fold over background
- Protein ELISA (cMet-Fc fusion protein): 3.2 fold over background

Sequence: AGQYLCTQAALGCPEWGT (Synthetically generated cMet-binding peptide sequence) [SEQ ID NO: 029]
- WC ELISA [1]: 1.23 fold over background
- Protein ELISA (cMet-Fc fusion protein): 4.3 fold over background

Sequence: AGSIACTGWPYFSCIDLGT (Synthetically generated cMet-binding peptide sequence) [SEQ ID NO: 088]
- WC ELISA [1]: 1.10 fold over background
- Protein ELISA (cMet-Fc fusion protein): 5.6 fold over background

Sequence: AGSSPCKGWPTFECYFYGT (Synthetically generated cMet-binding peptide sequence) [SEQ ID NO: 087]
- WC ELISA [1]: 1.30 fold over background
- Protein ELISA (cMet-Fc fusion protein): 4.8 fold over background

Sequence: AGSTDCRGHPTFECWGWGT (Synthetically generated cMet-binding peptide sequence) [SEQ ID NO: 086]
- WC ELISA [1]: 1.30 fold over background
- Protein ELISA (cMet-Fc fusion protein): 5.2 fold over background

Sequence: AGSWECTGPPSFHCQWYGT (Synthetically generated cMet-binding peptide sequence) [SEQ ID NO: 070]
- WC ELISA [1]: 1.37 fold over background
- Protein ELISA (cMet-Fc fusion protein): 3.9 fold over background

Sequence: AGSYWCSGPPTFMCRYEGT (Synthetically generated cMet-binding peptide sequence) [SEQ ID NO: 085]
- WC ELISA [1]: 1.27 fold over background
- Protein ELISA (cMet-Fc fusion protein): 17.1 fold over background

Sequence: AGTIRCNLAMMVCMFEGT (Synthetically generated cMet-binding peptide sequence) [SEQ ID NO: 028]
- WC ELISA [1]: 1.43 fold over background
- Protein ELISA (cMet-Fc fusion protein): 3.6 fold over background

Sequence: AGTLSCSEEYKSCQLQGT (Synthetically generated cMet-binding peptide sequence) [SEQ ID NO: 027]
- WC ELISA [1]: 1.30 fold over background
- Protein ELISA (cMet-Fc fusion protein): 3.6 fold over background

Sequence: AGTMYCLGPPTFICQQYGT (Synthetically generated cMet-binding peptide sequence) [SEQ ID NO: 084]
- WC ELISA [1]: 1.23 fold over background
- Protein ELISA (cMet-Fc fusion protein): 13.0 fold over background

Sequence: AGTVYCSWESSECWWVGT (Synthetically generated cMet-binding peptide sequence) [SEQ ID NO: 019]
- WC ELISA [1]: 1.37 fold over background
- Protein ELISA (cMet-Fc fusion protein): 3.9 fold over background

Sequence: AGTWHCAGPPWFTCYMDGT (Synthetically generated cMet-binding peptide sequence) [SEQ ID NO: 069]
- WC ELISA [1]: 1.30 fold over background
- Protein ELISA (cMet-Fc fusion protein): 9.0 fold over background

Sequence: AGVIVCNLSMMYCLYPGT (Synthetically generated cMet-binding peptide sequence) [SEQ ID NO: 023]
- WC ELISA [1]: 1.33 fold over background
- Protein ELISA (cMet-Fc fusion protein): 3.2 fold over background

Sequence: AGVLQCIGFEWFCDIWGT (Synthetically generated cMet-binding peptide sequence) [SEQ ID NO: 022]
- WC ELISA [1]: 1.40 fold over background
- Protein ELISA (cMet-Fc fusion protein): 3.4 fold over background

Sequence: AGVNSCLGPPTFECYQMGT (Synthetically generated cMet-binding peptide sequence) [SEQ ID NO: 076]
- WC ELISA [1]: 1.20 fold over background
- Protein ELISA (cMet-Fc fusion protein): 5.7 fold over background

Sequence: AGVTNCNLSTMFCFLHGT (Synthetically generated cMet-binding peptide sequence) [SEQ ID NO: 026]
- WC ELISA [1]: 1.30 fold over background
- Protein ELISA (cMet-Fc fusion protein): 3.8 fold over background

Sequence: AGVWICRVWDDECFFQGT (Synthetically generated cMet-binding peptide sequence) [SEQ ID NO: 020]
- WC ELISA [1]: 1.37 fold over background
- Protein ELISA (cMet-Fc fusion protein): 3.7 fold over background

Sequence: AGWFECEFGFWGCNWLGT (Synthetically generated cMet-binding peptide sequence) [SEQ ID NO: 018]
- WC ELISA [1]: 1.13 fold over background
- Protein ELISA (cMet-Fc fusion protein): 3.9 fold over background

Sequence: AGWGWCSGPPMFMCTEYGT (Synthetically generated cMet-binding peptide sequence) [SEQ ID NO: 099]
- WC ELISA [1]: 1.30 fold over background
- Protein ELISA (cMet-Fc fusion protein): 4.0 fold over background

Sequence: AGWSDCLGPPQFTCVHWGT (Synthetically generated cMet-binding peptide sequence) [SEQ ID NO: 083]
- WC ELISA [1]: 1.33 fold over background
- Protein ELISA (cMet-Fc fusion protein): 3.9 fold over background

Sequence: AGWTWCDLSMMSCIFHGT (Synthetically generated cMet-binding peptide sequence) [SEQ ID NO: 025]
- WC ELISA [1]: 1.37 fold over background
- Protein ELISA (cMet-Fc fusion protein): 3.2 fold over background

Sequence: AGWWSCQWELNVCIWQGT (Synthetically generated cMet-binding peptide sequence) [SEQ ID NO: 016]
- WC ELISA [1]: 1.33 fold over background
- Protein ELISA (cMet-Fc fusion protein): 4.1 fold over background

Sequence: AGYFECKGPPTFECWLSGT (Synthetically generated cMet-binding peptide sequence) [SEQ ID NO: 060]
- WC ELISA [1]: 1.43 fold over background
- Protein ELISA (cMet-Fc fusion protein): 8.1 fold over background

Sequence: AGYFHCSGSPWFQCDYYGT (Synthetically generated cMet-binding peptide sequence) [SEQ ID NO: 081]
- WC ELISA [1]: 1.40 fold over background
- Protein ELISA (cMet-Fc fusion protein): 9.1 fold over background

Sequence: AGYPECKDNYHWCEWKGT (Synthetically generated cMet-binding peptide sequence) [SEQ ID NO: 024]
- WC ELISA [1]: 1.30 fold over background
- Protein ELISA (cMet-Fc fusion protein): 14.5 fold over background
